Experimental data published in the nanobody polyreactivity screen of Harvey et al. (2022).

Assay: yeast display, Sf9 membrane polyspecificity reagent, FACS + sequencing; frameworks hold sequencing errors
Procedure, shortened: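 In a synthetic yeast display library (Saccharomyces cerevisiae BJ5465), nanobody expression was induced with galactose for 36–48 hours. FACS gates were set low and high (top ~1%) using anti-HA fluorescence for expression and streptavidin fluorescence for binding of the Sf9 membrane reagent. Each polyreactivity label is drawn from the gate of origin.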

Row | Sequence | polyreactivity (PSR sort gate)
1 | QVHLVESGGGLVQAGGSLRLSCAASGSTFRLYAMRWNRQAPGKERELVASITFSDSNTSYADSVKGRFTISRDNAKNTVYLQMNSLKPEDTAVYYCAKETSYENVVYTFDYDYWGQGTQVTVSS | low polyreactivity
2 | QVHLVESGGGLVQAGGSLRLSCAASGSTFTYYAMGWYRQAPGKERELVAAISRRGGSTYYADSVKGRFTISRDNAKNTVYLQMNSLKPEDTAVYYCNVVIYSYGCNGRYDFWGQGTQVTVSS | high polyreactivity
3 | QVHLVESGGGLVQAGGSLRLSCAASGSTFVTNAMGWYRQAPGKERELVAAITSGAGTYYADSVKGRFTISRDNAKNTVYLQMNSLKPEDTAVYYCAARRYYSRGRYRFGYWGQGTQVTVSS | high polyreactivity
4 | QVHLVESGGGLVQAGGSLRLSCAASGSTFVTYAMGWYTQAPGKEREFVAAISSTGTGRTYYADSVKGRFTISRDNAKNTVYLQMNSLKPEDTAVYYCAADLYGTYDYCGQGTQVTVSS | low polyreactivity
5 | QVHLVESGGGLVQAGGSLRLSCAASGSTFYRYAMGWYRQAPGKEREFVASISKRGGSTYYADSVKGRFTISRDNAKNTVYLQMISLKPEETAVYYCAADPKFFSGSYLYGYWGQGTQVTVSS | high polyreactivity
6 | QVHLVESGGGLVQAGGSLRLSCAASGSTFYRYAMGWYRQAPGKERELVAAITRSGGSTYYADSVKGRFTISRDNAKNTVYLLMNSLKPEDTAVYYCAADRYYVYTFYYWGQGTQVTVSS | high polyreactivity
7 | QVHLVESGGGLVQAGGSLRLSCAASGSTFYYNAMGWYRQAPGKERELDAAITFTGGSTYADSVKGRFTISRDNAKNTVYLQMNSLKPEDTAVYYCAAESLISWRYDYWGQGTQVTVSS | low polyreactivity
8 | QVHLVESGGGLVQAGGSLRLSCAASGSTILFYAMGWYRQAPGKERELVATISRGGSTYYADSVKGRFTISRDNAKNTVYLEMNSLKPEDTAVYYCAARATRVTIAPRYGYWGQGTQVTVSS | low polyreactivity
9 | QVHLVESGGGLVQAGGSLRLSCAASGSTIYYNAMGWYRQAPGKERELVAAISKSSSRTYYADSVKGRFTISRDNAKNTVYLQMNSLKTEDTAVYFCAADAVYFHFDYWGQGTQVTVSS | high polyreactivity
10 | QVHLVESGGGLVQAGGSLRLSCAASGSTLHYYTMGWYRQEPGKERELVAAITSGGSTHYADSVKGRFTISRDNAKNTVYLQMNSLKPEDTAVYYCAVKTGKWIPRDYWGQGTQVTVSS | low polyreactivity
11 | QVHLVESGGGLVQAGGSLRLSCAASGYIFGGYAMGWSRQAPGKEREFVAAISDISGSTYYADSVKGRFTISRDNAKNTVYLQMNSLKPEDTAVYYGGHTSTADEDYWGQGTQVTVSS | low polyreactivity
12 | QVHLVESGGGLVQAGGSLRLSCAASGYTFGHYAMGWYRQAPGKERELVAVITSGGSTNYADSVKGRFTISRDNAKNTVYLQMNSLKPEDTAVYYCAADLYFYYVWIRDYWGQGTQVTVSS | low polyreactivity
13 | QVHLVESGGGLVQAGGSLRLSCAASGYTFQWYDRGWYRQAPGKERELVASISWRGGSTYYADSVKGRFTISRDNAKNTVYLQMNSLKPEDTAVYYCAASLWPDYEYVYWGQGTQVTVSS | low polyreactivity
14 | QVHLVESGGGLVQAGGSLRLSCAASGYTRFYALGWYRQAPGKERELVAAISSSGGNTYYADSVKGSFTISRDNAKNTVYLQMNSLKPEDTAVYYCAKYVSYSRTLYDYWGQGTQVTVSS | high polyreactivity
15 | QVHLVESGGGLVQAGGSLRLSCAATGRTFRSYAMGWYRQAPGKEREFVAAISRSGASTRYPDSVKGRFTISRDIAKTTVYLQMNSLKPEVTAVYYCAAVWPDVRGYDYWGQGTEVTVSS | high polyreactivity
16 | QVHLVESGGGLVQAGGSLRLSCAATGSTFAHNDMGWYRQAPGKERELVAAITWGDSSTYYADSVKGRFTISRDNAKNTVYLQMNSLKPEDTAVYYCAKDYGFTGYGYWGQGTQVTVSS | low polyreactivity
17 | QVHLVESGGGLVQAGGSLRLSCAGSGRTFRYYAMGWYGQAPGKERELVAAISVRTGSTSDADSVKGRFTISRDNAKNTVYLQMNSLNPEDTAVYYCAATSRYFQPPGYGGGRIGYGYWGQGTQVTVSS | high polyreactivity
18 | QVHLVESGGGLVQAGGSLRLSCASSGSIFRYNTMGWYRQAPGKERELVAAIRGDGSTNYADSVKGRFTISRDNAKNTVYLQMNSLKPEDTAVYYCAVNLRGYRYAYDYWGQGTKVTVSS | low polyreactivity
19 | QVHLVESGGGLVQAGGSLRLSCASTGIIFLRNAMGWYRQAHGKERELVAAISYRGGSTYYADSVKGRFTISRDNANNTVYLQMNSLKPEDTAVYYCNDLYTSLYDYWGQGTQVTVSS | high polyreactivity
20 | QVHLVESGGGLVQAGGSLRLSCDASGLTLWTYAMGWSRQAAGKEMELVARIRSGGSTYYADSVKGRFTFSRDNAKNTVYLQMNSLKPEDTAVYSCNAKRYGRWAAAGRVGYDYWGQGTQVTVSS | high polyreactivity
21 | QVHLVESGGGLVQAGGSLRLSCDASGSIFASNTMGWYRQEPGQERELVAGITKIGSSTYYADSVKGRFTISRDHAKNTVYLKMNSLTPEDTAVYYCNAYGPNIYSSRYEYWGQGTQVTVSS | low polyreactivity
22 | QVHLVESGGGLVQAGGSLRLSCSASGSTFYIYTMGCYRQAPGKARELVAAISSSGGSTYYADSVKGRFTISRDNAKNTVYLQMNILKPEDTAVYYCAADPWVRLEYDYWGQGTQVTVSS | low polyreactivity

Row | Sequence | polyreactivity (PSR sort gate)
23 | QVHLVESGGGLVQAGGSLRLSCSASGSTFYRYAMGWYRQAPGKERELVAAINTGGSTNYADSVKGRFTISRDNAKNTVYLQMNSLKPEDTAVYYCAARFQYYRKYDYWGQGTQVTVSS | low polyreactivity
24 | QVHLVESGGGLVQAGGSLRLSCTASGRTFKYNSMGSSRQEPGKERELVAAISSRGGSTYYADSVKGRFTISRDNAKNTVYLQMNSLKPEDTAVYYCAAQFTTRYDWGQGTQVTVSS | high polyreactivity
25 | QVHLVESGGGLVQAGGSLRLSFAASGLIFSAYAMAWYRQAPGKERELVAAISSSGGRTYYADSVKGRFTISRDNAKNTVYLQMNSLKPEDTAVYYGNAASKNSGRYAYQNYDYWGQGTQVTVSS | high polyreactivity
26 | QVHLVESGGGLVQAGGSLRLSFAASGRIFWDNAMGWYRQAHGKERELVAAISDSVVITYYADSVKGRFTISRDNAKNTVYLQMNSLKPEDTAVYYCAADKRGTVYLSSFWMDYWGQGTQVTVSS | low polyreactivity
27 | QVHLVESGGGLVQAGGSLRLSFAASGRISRIYTMVWYRPAPGKERELVAAITSRGGSTYYADSLKGRFTISRDNAKNTVYFQMNSLNPEDTAVYYCAAGTFWWGYRSKGDEYDYWGQGTKVTVSS | high polyreactivity
28 | QVHLVESGGGLVQAGGSLRLSFDASGRIFYRNVMGWYRQAPGKERELVATITWGGSTYYADSVKGRFTISRYNEKNTVYLQMNSLKPEDTAVYYCATVRSRLFGQYYYWGQGTQVTVTS | high polyreactivity
29 | QVHLVESGGGLVQAGGSLRLSGAASGLTFSGNAMGWYRQAPGKERELVAAISWNGGRTYYADSVKGRFTISRDNAKNTVYLQMNSLKPEDTAVYYCAAEVRYSTYEDYDYWGQGTEVTVSS | low polyreactivity
30 | QVHLVESGGGLVQAGGSLRLSGAASGRIFFSNAMGWYRQAPGKEWELVAAISTSGGSTYYADSVKGRFTISRENAKNTVYLQMNSLKPEDTAVYYCNAVYYTSYSGYHFVYEYDYWGQGTQVTVSS | low polyreactivity
31 | QVHLVESGGGLVQAGGSLRLSLAASGSIFHPYAMGWYRQAPGKERELVAAISKSGGNTYYADSVKGRFTISRDNAKNNVYLQMNSLKPVDPEVYYCAALDYWGQGTKVTVSS | low polyreactivity
32 | QVHLVESGGGLVQAGGSLRLSSAASGITFWHNTMGWYRQAPGKERELVAAISWTGGRTYYADSVKGRFTISRDNAKNTVYLQMNSLKPEDTAVFSCAADFSWTPCGNYDSWGQGTQVTVSS | low polyreactivity
33 | QVHLVESGGGLVQAGGSLRLSSAASGSTFLYYGMGWYRQAPGTERELVATITWRGGRTYYADSVKGRFTISRDNAKNSVYLQMNSLNPEDTAVYYCAARVVGSYLKPYPYGLYYWGQGTQVTVSS | high polyreactivity
34 | QVHLVESGGGLVQAGGSLRLSSAAYGGIFDDNAMGWYRQAHGKERELVAAISSSGGSTYYADSVKGRFTISRDNAKYTVYLQMNSLKPEDTAVYYCNADRRRRFGYWGQGTQVNVSS | high polyreactivity
35 | QVHLVESGGGLVQAGGSLRLSSPASGRIFYRKALGWSRQETGKERELVAAISSSGGSTYYADSVKGRFTISRDNAKNTVYLQMNSLKPEDTEVYYCNKAVWGRSKYDFCGQGTQVTVSS | high polyreactivity
36 | QVHLVESGGGLVQAGGSLRLTCAASGRTFPGYDMGWYRQAPGKERELVAAISWSGTSTYYADSVKGRFTISRDNSKNTVYLQMNSLIPEDTAVYYCAARVKGQWNTYEYWGQGTQVTVSS | high polyreactivity
37 | QVHLVESGGGLVQAGGSLRLTCAASGSIFLYYAMGWYRQAPGKERELVAGIRRGGRTNYADSVKGRFTISRDNAKNTVYLQMNSLKPEDTAVYYCAKGGYWGQGTLVTVSS | high polyreactivity
38 | QVHLVESGGGLVQAGGSLRLTCAASGSTFDINAMRWYRQAPGKERELVASITFSGGSTYYADSVKGRFTISRDNAKNTVYLQMNSLKPEDTAVYYCAADSSGEYPGGYWGQGTQVTVSS | low polyreactivity
39 | QVHLVESGGGLVQAGGSLRVSCDASGILYTVYAMGWYRQAPGKQRELVAAITWSGGSTYYADSVKGRFTISRDNAKNTVYLQMNSLKPEDTEVYYCNTVGRVWDVETDGDYDYWGQGTQVTVSS | low polyreactivity
40 | QVHLVESGGGLVQAGGSLSLSCAASGSIFRYYAMGWYRQAPGKEREFVAAITRGGGRTYYADSVKGRFTISRDTAKHTVYLQLNSLKPEDTAVYSCAAGPPRTRYRNARFDYWGQGTQVTVSS | high polyreactivity
41 | QVHLVESGGGLVQAGGTLRLSCAASGFTFRIYAMGWYIQAPGKERELVATISWSGTSTYYADSVKGRFTISRDNAKNTVYLQMNSLKPEDTAVYYCAKDGVSVYWLNKYYYWGQGTQVTVSS | low polyreactivity
42 | QVHLVESGGGLVQAGGTLRLSCYASGRTIDTNAMGWYRQPPGKEREMVATINCSGGRTHYADSVKGRFTISRDNAKNTVYLQMNSLKPEDTAVFYCAKASSRRYWTIRDCDYWGQGTQVTVSS | low polyreactivity
43 | QVHLVESGGGLVQAGRSLRISCAASGRTFYGYAMGWYRQAPGKERELVAAITNGGRTYYADSVKGRFTISRDNAKNTVYLQMNSLKPEDTAVYYCAAGTGRGRSTLGSYYWGQCTQVTVSS | high polyreactivity
